From ChEMBL document CHEMBL2074239, “Characterization of uremic toxin transport by organic anion transporters in the kidney” (Kidney Int, 2004)

What was measured:
[1] = target: T1, Organic anion transporter 3 (Homo sapiens, UniProt Q8TCC7); assay: TP_TRANSPORTER: inhibition of benzylpenicillin uptake in OAT3-expressing HEK293 cells; type: functional, cell-based
T1 sequence (Q8TCC7 whole entry): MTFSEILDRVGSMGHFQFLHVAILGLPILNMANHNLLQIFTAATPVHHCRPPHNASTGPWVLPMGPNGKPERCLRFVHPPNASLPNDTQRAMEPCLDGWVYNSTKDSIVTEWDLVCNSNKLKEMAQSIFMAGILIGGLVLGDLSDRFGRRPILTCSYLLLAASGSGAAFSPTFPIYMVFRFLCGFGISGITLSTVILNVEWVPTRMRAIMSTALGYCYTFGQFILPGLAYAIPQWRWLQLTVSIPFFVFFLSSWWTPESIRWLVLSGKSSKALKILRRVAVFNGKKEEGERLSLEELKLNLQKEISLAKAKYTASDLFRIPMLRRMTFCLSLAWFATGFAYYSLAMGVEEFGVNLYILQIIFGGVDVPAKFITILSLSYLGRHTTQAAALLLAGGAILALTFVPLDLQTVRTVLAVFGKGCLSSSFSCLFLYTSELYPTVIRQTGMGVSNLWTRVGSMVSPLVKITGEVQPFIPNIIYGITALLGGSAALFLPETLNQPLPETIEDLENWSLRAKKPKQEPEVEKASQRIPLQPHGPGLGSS

[2] = target: T2, Organic anion transporter 3 (Rattus norvegicus, UniProt Q9R1U7); assay: TP_TRANSPORTER: inhibition of benzylpenicillin uptake in Oat3-expressing HEK293 cells; type: functional, cell-based
T2 sequence (Q9R1U7 whole entry): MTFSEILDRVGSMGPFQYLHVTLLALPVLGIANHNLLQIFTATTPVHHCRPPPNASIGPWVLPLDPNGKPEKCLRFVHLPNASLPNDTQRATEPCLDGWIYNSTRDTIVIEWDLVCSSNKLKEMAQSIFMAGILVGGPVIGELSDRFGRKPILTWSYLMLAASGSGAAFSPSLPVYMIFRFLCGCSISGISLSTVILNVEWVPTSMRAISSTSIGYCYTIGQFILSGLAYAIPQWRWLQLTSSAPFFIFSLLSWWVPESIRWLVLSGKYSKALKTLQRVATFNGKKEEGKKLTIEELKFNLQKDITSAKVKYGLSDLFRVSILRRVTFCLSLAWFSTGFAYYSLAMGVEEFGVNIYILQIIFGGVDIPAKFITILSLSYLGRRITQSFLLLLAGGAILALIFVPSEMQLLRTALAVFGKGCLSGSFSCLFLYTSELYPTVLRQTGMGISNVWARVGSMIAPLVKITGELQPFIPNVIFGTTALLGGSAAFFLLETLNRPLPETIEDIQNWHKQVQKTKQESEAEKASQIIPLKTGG

[3] = substrate: O=S(=O)(O)Oc1c[nH]c2ccccc12; assay: (§1) TP_TRANSPORTER: uptake in Oat3-expressing HEK293 cells; type: functional, cell-based
[4] = substrate: CCCc1oc(CCC(=O)O)c(C(=O)O)c1C; assay: as §1; type: functional, cell-based
[5] = substrate: CCCc1oc(CCC(=O)O)c(C(=O)O)c1C; assay: (§2) TP_TRANSPORTER: uptake in OAT1-expressing HEK293 cell; type: functional, cell-based
[6] = substrate: CC(=O)Oc1c[nH]c2ccccc12; assay: as §2; type: functional, cell-based
[7] = substrate: O=S(=O)(O)Oc1c[nH]c2ccccc12; assay: (§3) TP_TRANSPORTER: uptake in OAT3-expressing HEK293 cells; type: functional, cell-based
[8] = substrate: CCCc1oc(CCC(=O)O)c(C(=O)O)c1C; assay: as §3; type: functional, cell-based
[9] = substrate: O=C(O)CNC(=O)c1ccccc1; assay: cells, lysate or membranes named

## CC(=O)Oc1c[nH]c2ccccc12 [INDOLE ACETATE]
[1]
  Ki: 491 µM
[2]
  Ki: 582 µM

## O=C(O)CNC(=O)c1ccccc1 [HIPPURIC ACID]
[1]
  Ki: 31 µM
[2]
  Ki: 19 µM

B1: Organic anion transporter 3 (Rattus norvegicus) (protein)
chain: MTFSEILDRVGSMGPFQYLHVTLLALPVLGIANHNLLQIFTATTPVHHCRPPPNASIGPWVLPLDPNGKPEKCLRFVHLPNASLPNDTQRATEPCLDGWIYNSTRDTIVIEWDLVCSSNKLKEMAQSIFMAGILVGGPVIGELSDRFGRKPILTWSYLMLAASGSGAAFSPSLPVYMIFRFLCGCSISGISLSTVILNVEWVPTSMRAISSTSIGYCYTIGQFILSGLAYAIPQWRWLQLTSSAPFFIFSLLSWWVPESIRWLVLSGKYSKALKTLQRVATFNGKKEEGKKLTIEELKFNLQKDITSAKVKYGLSDLFRVSILRRVTFCLSLAWFSTGFAYYSLAMGVEEFGVNIYILQIIFGGVDIPAKFITILSLSYLGRRITQSFLLLLAGGAILALIFVPSEMQLLRTALAVFGKGCLSGSFSCLFLYTSELYPTVLRQTGMGISNVWARVGSMIAPLVKITGELQPFIPNVIFGTTALLGGSAAFFLLETLNRPLPETIEDIQNWHKQVQKTKQESEAEKASQIIPLKTGG
[3]
  Km: 174 µM
[4]
  Km: 11 µM

B2: Solute carrier family 22 member 6 (Homo sapiens) (protein)
chain: MAFNDLLQQVGGVGRFQQIQVTLVVLPLLLMASHNTLQNFTAAIPTHHCRPPADANLSKNGGLEVWLPRDRQGQPESCLRFTSPQWGLPFLNGTEANGTGATEPCTDGWIYDNSTFPSTIVTEWDLVCSHRALRQLAQSLYMVGVLLGAMVFGYLADRLGRRKVLILNYLQTAVSGTCAAFAPNFPIYCAFRLLSGMALAGISLNCMTLNVEWMPIHTRACVGTLIGYVYSLGQFLLAGVAYAVPHWRHLQLLVSAPFFAFFIYSWFFIESARWHSSSGRLDLTLRALQRVARINGKREEGAKLSMEVLRASLQKELTMGKGQASAMELLRCPTLRHLFLCLSMLWFATSFAYYGLVMDLQGFGVSIYLIQVIFGAVDLPAKLVGFLVINSLGRRPAQMAALLLAGICILLNGVIPQDQSIVRTSLAVLGKGCLAASFNCIFLYTGELYPTMIRQTGMGMGSTMARVGSIVSPLVSMTAELYPSMPLFIYGAVPVAASAVTVLLPETLGQPLPDTVQDLESRWAPTQKEAGIYPRKGKQTRQQQEHQKYMVPLQASAQEKNGL
[5]
  Km: 141 µM
[6]
  Km: 14 µM

B3: Organic anion transporter 3 (Homo sapiens) (protein)
chain: MTFSEILDRVGSMGHFQFLHVAILGLPILNMANHNLLQIFTAATPVHHCRPPHNASTGPWVLPMGPNGKPERCLRFVHPPNASLPNDTQRAMEPCLDGWVYNSTKDSIVTEWDLVCNSNKLKEMAQSIFMAGILIGGLVLGDLSDRFGRRPILTCSYLLLAASGSGAAFSPTFPIYMVFRFLCGFGISGITLSTVILNVEWVPTRMRAIMSTALGYCYTFGQFILPGLAYAIPQWRWLQLTVSIPFFVFFLSSWWTPESIRWLVLSGKSSKALKILRRVAVFNGKKEEGERLSLEELKLNLQKEISLAKAKYTASDLFRIPMLRRMTFCLSLAWFATGFAYYSLAMGVEEFGVNLYILQIIFGGVDVPAKFITILSLSYLGRHTTQAAALLLAGGAILALTFVPLDLQTVRTVLAVFGKGCLSSSFSCLFLYTSELYPTVIRQTGMGVSNLWTRVGSMVSPLVKITGEVQPFIPNIIYGITALLGGSAALFLPETLNQPLPETIEDLENWSLRAKKPKQEPEVEKASQRIPLQPHGPGLGSS
[7]
  Km: 263 µM
[8]
  Km: 27 µM

B4: Solute carrier family 22 member 6 (Rattus norvegicus) (protein)
chain: MAFNDLLKQVGGVGRFQLIQVTMVVAPLLLMASHNTLQNFTAAIPPHHCRPPANANLSKDGGLEAWLPLDKQGQPESCLRFTSPQWGPPFYNGTEANGTRVTEPCIDGWVYDNSTFPSTIVTEWNLVCSHRAFRQLAQSLYMVGVLLGAMVFGYLADRLGRRKVLILNYLQTAVSGTCAAYAPNYTVYCVFRLLSGMSLASIAINCMTLNVEWMPIHTRAYVGTLIGYVYSLGQFLLAGIAYAVPHWRHLQLVVSVPFFIAFIYSWFFIESARWYSSSGRLDLTLRALQRVARINGKQEEGAKLSIEVLRTSLQKELTLSKGQASAMELLRCPTLRHLFLCLSMLWFATSFAYYGLVMDLQGFGVSMYLIQVIFGAVDLPAKFVCFLVINSMGRRPAQMASLLLAGICILVNGIIPKSHTIIRTSLAVLGKGCLASSFNCIFLYTGELYPTVIRQTGLGMGSTMARVGSIVSPLVSMTAEFYPSMPLFIFGAVPVVASAVTALLPETLGQPLPDTVQDLKSRSRGKQNQQQQEQQKQMMPLQASTQEKNGL
[9]
  Km: 28 µM
